Measured values taken from patent US20230235013A1 (MABSOLVE, published 2023).
Substitutions are numbered along the chain they refer to. Numbers in names are those of the source.

B1: anti-CD20 human IgG1 L234Q/L235G/G236R (antibody)
heavy: QVQLQQPGAELVKPGASVKMSCKASGYTFTSYNMHWVKQTPGRGLEWIGAIYPGNGDTSYNQKFKGKATLTADKSSSTAYMQLSSLTSEDSAVYYCARSTYYGGDWYFNVWGAGTTVTVSSASTKGPSVFPLAPSSKSTSGGTAALGCLVKDYFPEPVTVSWNSGALTSGVHTFPAVLQSSGLYSLSSVVTVPSSSLGTQTYICNVNHKPSNTKVDKKVEPKSCDKTHTCPPCPAPEQGRGPSVFLFPPKPKDTLMISRTPEVTCVVVDVSHEDPEVKFNWYVDGVEVHNAKTKPREEQYNSTYRVVSVLTVLHQDWLNGKEYKCKVSNKALPAPIEKTISKAKGQPREPQVYTLPPSRDELTKNQVSLTCLVKGFYPSDIAVEWESNGQPENNYKTTPPVLDSDGSFFLYSKLTVDKSRWQQGNVFSCSVMHEALHNHYTQKSLSLSPGK
light: QIVLSQSPAILSASPGEKVTMTCRASSSVSYIHWFQQKPGSSPKPWIYATSNLASGVPVRFSGSGSGTSYSLTISRVEAEDAATYYCQQWTSNPPTFGGGTKLEIKRTVAAPSVFIFPPSDEQLKSGTASVVCLLNNFYPREAKVQWKVDNALQSGNSQESVTEQDSKDSTYSLSSTLTLSKADYEKHKVYACEVTHQGLSSPVTKSFNRGEC
notes: also called 1-110; copies: 2 + 2
B2: anti-CD20 human IgG1 L234Q/L235H/G236R (antibody)
heavy: B1 heavy with G239H
light: B1 light
notes: also called 2-29; copies: 2 + 2
B3: anti-CD20 human IgG1 L234R/L235S/G236R (antibody)
heavy: B1 heavy with Q238R, G239S
light: B1 light
notes: copies: 2 + 2
B4: anti-CD20 human IgG1 L234A/L235A (LALA) (antibody)
heavy: not shown
light: B1 light
notes: also called 10.16; copies: 2 + 2
B5: anti-CD20 human IgG1 L234Q/L235N/G236R (antibody)
heavy: B1 heavy with G239N
light: B1 light
notes: copies: 2 + 2
B6: anti-CD20 human IgG1 L234D/L235K/G236R (antibody)
heavy: B1 heavy with Q238D, G239K
light: B1 light
notes: also called 1-23; 2-7; copies: 2 + 2
B7: anti-CD20 human IgG1 L234S/L235I/G236R (antibody)
heavy: B1 heavy with Q238S, G239I
light: B1 light
notes: also called 2-49; copies: 2 + 2
B8: anti-CD20 human IgG1 L234S/L235E/G236R (antibody)
heavy: B1 heavy with Q238S, G239E
light: B1 light
notes: also called 2-46; copies: 2 + 2
B9: anti-CD20 human IgG1 L234R/L235N/G236R (antibody)
heavy: B1 heavy with Q238R, G239N
light: B1 light
notes: copies: 2 + 2
B10: anti-CD20 human IgG1 L234S/L235Q/G236R (antibody)
heavy: B1 heavy with Q238S, G239Q
light: B1 light
notes: copies: 2 + 2
B11: anti-CD20 human IgG1 L234R/L235V/G236R (antibody)
heavy: B1 heavy with Q238R, G239V
light: B1 light
notes: copies: 2 + 2
B12: anti-CD20 human IgG1 L234S/L235S/G236R (antibody)
heavy: B1 heavy with Q238S, G239S
light: B1 light
notes: also called 1-149; copies: 2 + 2
B13: anti-CD20 human IgG1 L234R/L235G/G236R (antibody)
heavy: B1 heavy with Q238R
light: B1 light
notes: copies: 2 + 2
B14: anti-CD20 human IgG1 L234T/L235N/G236R (antibody)
heavy: B1 heavy with Q238T, G239N
light: B1 light
notes: copies: 2 + 2
B15: anti-CD20 human IgG1 L234S/L235M/G236R (antibody)
heavy: B1 heavy with Q238S, G239M
light: B1 light
notes: copies: 2 + 2
B16: anti-CD20 human IgG1 L234Q/L235K/G236R (antibody)
heavy: B1 heavy with G239K
light: B1 light
notes: copies: 2 + 2
B17: anti-CD20 human IgG1 L234T/L235R/G236R (antibody)
heavy: B1 heavy with Q238T, G239R
light: B1 light
notes: also called 2-61; copies: 2 + 2
B18: anti-CD20 human IgG1 L234Q/L235V/G236R (antibody)
heavy: B1 heavy with G239V
light: B1 light
notes: copies: 2 + 2
B19: anti-CD20 human IgG1 L234S/L235A/G236R (antibody)
heavy: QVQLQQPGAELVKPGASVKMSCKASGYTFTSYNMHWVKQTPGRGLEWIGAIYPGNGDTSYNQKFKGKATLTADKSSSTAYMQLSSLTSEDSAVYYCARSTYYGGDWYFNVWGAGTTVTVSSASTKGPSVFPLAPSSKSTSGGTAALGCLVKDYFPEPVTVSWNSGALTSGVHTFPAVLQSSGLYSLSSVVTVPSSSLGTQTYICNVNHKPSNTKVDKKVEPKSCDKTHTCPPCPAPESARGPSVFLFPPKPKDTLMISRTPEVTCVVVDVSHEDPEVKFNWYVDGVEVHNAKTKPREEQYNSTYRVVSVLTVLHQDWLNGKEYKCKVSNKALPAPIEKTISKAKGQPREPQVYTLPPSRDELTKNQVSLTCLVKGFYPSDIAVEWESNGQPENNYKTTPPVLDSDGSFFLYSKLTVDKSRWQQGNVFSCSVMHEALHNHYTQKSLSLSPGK
light: B1 light
notes: also called 1-137; copies: 2 + 2
B20: anti-CD20 human IgG1 L234R/L235E/G236R (antibody)
heavy: B1 heavy with Q238R, G239E
light: B1 light
notes: also called 2-37; copies: 2 + 2
B21: anti-CD20 human IgG1 L234R/L235Q/G236R (antibody)
heavy: B1 heavy with Q238R, G239Q
light: B1 light
notes: also called 2-42; copies: 2 + 2
B22: anti-CD20 human IgG1 L234Q/L235I/G236R (antibody)
heavy: B1 heavy with G239I
light: B1 light
notes: copies: 2 + 2
B23: anti-CD20 human IgG1 L234T/L235E/G236R (antibody)
heavy: B1 heavy with Q238T, G239E
light: B1 light
notes: copies: 2 + 2
B24: anti-CD20 human IgG1 L234S/L235R/G236R (antibody)
heavy: B1 heavy with Q238S, G239R
light: B1 light
notes: also called 2-51; copies: 2 + 2
B25: anti-CD20 human IgG1 L234S/L235K/G236R (antibody)
heavy: B1 heavy with Q238S, G239K
light: B1 light
notes: copies: 2 + 2
B26: anti-CD20 human IgG1 L234S/L235N/G236R (antibody)
heavy: B1 heavy with Q238S, G239N
light: B1 light
notes: copies: 2 + 2
B27: anti-CD20 human IgG1 L234T/L235A/G236R (antibody)
heavy: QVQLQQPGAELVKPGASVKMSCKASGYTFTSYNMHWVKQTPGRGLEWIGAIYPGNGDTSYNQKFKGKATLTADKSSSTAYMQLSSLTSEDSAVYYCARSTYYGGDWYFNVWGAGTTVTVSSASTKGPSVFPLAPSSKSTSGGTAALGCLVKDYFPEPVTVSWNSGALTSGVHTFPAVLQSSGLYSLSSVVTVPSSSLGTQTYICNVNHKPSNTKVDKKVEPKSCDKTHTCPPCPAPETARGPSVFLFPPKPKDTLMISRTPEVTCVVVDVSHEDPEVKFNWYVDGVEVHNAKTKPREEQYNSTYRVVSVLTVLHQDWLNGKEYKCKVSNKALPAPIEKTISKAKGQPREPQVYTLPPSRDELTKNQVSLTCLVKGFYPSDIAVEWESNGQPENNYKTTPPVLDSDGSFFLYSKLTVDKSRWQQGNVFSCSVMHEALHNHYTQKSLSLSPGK
light: B1 light
notes: also called 1-152; 2-54; copies: 2 + 2
B28: anti-CD20 human IgG1 L234T/L235G/G236R (antibody)
heavy: B1 heavy with Q238T
light: B1 light
notes: copies: 2 + 2
B29: anti-CD20 human IgG1 L234Q/L235M/G236R (antibody)
heavy: B1 heavy with G239M
light: B1 light
notes: also called 1-115; copies: 2 + 2
B30: anti-CD20 human IgG1 L234T/L235M/G236R (antibody)
heavy: B1 heavy with Q238T, G239M
light: B1 light
notes: also called 1-160; copies: 2 + 2
B31: anti-CD20 human IgG1 L234Q/L235Q/G236R (antibody)
heavy: B1 heavy with G239Q
light: B1 light
notes: also called 2-31; copies: 2 + 2
B32: anti-CD20 human IgG1 L234R/G236R (antibody)
heavy: not shown
light: B1 light
notes: also called 2-41; copies: 2 + 2
B33: anti-CD20 human IgG1 L234R/L235A/G236R (antibody)
heavy: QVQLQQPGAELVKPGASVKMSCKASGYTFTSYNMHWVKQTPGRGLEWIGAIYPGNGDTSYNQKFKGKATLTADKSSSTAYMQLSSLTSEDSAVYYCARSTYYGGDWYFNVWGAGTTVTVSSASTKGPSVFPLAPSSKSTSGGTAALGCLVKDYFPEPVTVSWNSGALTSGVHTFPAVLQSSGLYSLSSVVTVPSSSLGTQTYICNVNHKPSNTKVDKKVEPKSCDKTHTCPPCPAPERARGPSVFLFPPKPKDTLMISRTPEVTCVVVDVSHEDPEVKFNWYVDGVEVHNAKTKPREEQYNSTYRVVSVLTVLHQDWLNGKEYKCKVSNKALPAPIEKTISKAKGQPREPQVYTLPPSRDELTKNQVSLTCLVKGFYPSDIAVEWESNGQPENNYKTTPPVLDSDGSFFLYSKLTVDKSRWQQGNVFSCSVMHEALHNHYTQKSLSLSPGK
light: B1 light
notes: copies: 2 + 2

The binders below were run against T1, Histidine-tagged recombinant human FcγRI (CD64) (human, UniProt P12314 16-288) (assay: SPR, culture supernatant, captured His-FcγRI;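 note: biacore T200 SPR at 25 °C, anti-His capture, supernatants of HEK293 cells expressing IgG1 Fc variants injected 1 min, reference-subtracted response read 55 s after injection start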).
T1 construct: bought; also called Sino Biological Cat. No. 12056-H08H

Mean binding response [RU] | Binder
28.1 | B1
10 | B2
34 | B3
65 | B4
26.8 | B5
20.9 | B6
12 | B7
11.6 | B8
10.8 | B9
29.6 | B10
32.5 | B11
25.6 | B12
31.9 | B13
22.4 | B14
32 | B15
26.9 | B16
13.6 | B17

Mean binding response [RU] | Binder
20.9 | B18
29.6 | B19
16.7 | B20
10.1 | B21
34.7 | B22
24 | B23
11.1 | B24
23.8 | B25
22.7 | B26
11.8 | B27
26.9 | B28
38.4 | B29
31.6 | B30
16.8 | B31
21.1 | B32
28.1 | B33
